# In patent US20090325869A1 (CHILDREN S HOSPITAL AND RESEARCH CENTER OAKLAND, published 2009):
# T1: Ferritin H (frog), wild type, protein nanocage (frog, UniProt P07229 2-176)
# T1 sequence (looked up): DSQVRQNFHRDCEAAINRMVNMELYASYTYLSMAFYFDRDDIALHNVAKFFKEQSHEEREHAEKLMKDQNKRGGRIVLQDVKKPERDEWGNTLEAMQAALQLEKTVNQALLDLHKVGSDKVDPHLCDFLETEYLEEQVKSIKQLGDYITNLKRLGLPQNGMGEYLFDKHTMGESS
# Biological target: T1, Ferritin H (frog), wild type, protein …
# Assay: cell-based or functional assay
binder,measurement,value
"HSNTYYFPKGG [Peptide 1, synthetic undecapeptide HSNTYYFPKGG]","rate of ferritin demineralization, fold against wild type ferritin H without peptide",3.3 fold
